Molecular target: T1, Human CD137 ECD (human)
T1 construct: also called 4-1BB
Assay: single mutant vs template dBBDu183H

T1 sequence (chain, as listed by the source limits assumed): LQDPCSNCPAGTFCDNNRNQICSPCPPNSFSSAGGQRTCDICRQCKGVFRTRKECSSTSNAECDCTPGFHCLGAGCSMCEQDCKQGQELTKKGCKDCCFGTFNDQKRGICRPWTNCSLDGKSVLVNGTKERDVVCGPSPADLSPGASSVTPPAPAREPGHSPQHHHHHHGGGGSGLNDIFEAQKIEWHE

fold change of affinity [fold] | Binder
0.6 | H183/L072 VH A60D (antibody, name in Kabat numbering, V domains shown) VH: QVQLVESGGGLVQPGRSLRLSCAASGFTFSNAWMHWVRQAPGKGLEWVAQIKDKGNAYAAYYDPSVKGRFTISRDDSKNSIYLQMNSLKTEDTAVYYCHYVHYASASTVLPAFGVDAWGQGTTVTVSS VL: DIVMTQSPLSLPVTPGEPASISCQASQELVHMNRNTYLHWYQQKPGQAPRLLIYKVSNRFPGVPDRFSGSGSGTDFTLKISRVEAEDVGVYYCAQGTSVPFTFGQGTKLEIK
0.1 | H183/L072 VH A60P (antibody, name in Kabat numbering, V domains shown) VH: QVQLVESGGGLVQPGRSLRLSCAASGFTFSNAWMHWVRQAPGKGLEWVAQIKDKGNAYAAYYPPSVKGRFTISRDDSKNSIYLQMNSLKTEDTAVYYCHYVHYASASTVLPAFGVDAWGQGTTVTVSS VL: DIVMTQSPLSLPVTPGEPASISCQASQELVHMNRNTYLHWYQQKPGQAPRLLIYKVSNRFPGVPDRFSGSGSGTDFTLKISRVEAEDVGVYYCAQGTSVPFTFGQGTKLEIK
1.3 | H183/L072 VH A60T (antibody, name in Kabat numbering, V domains shown) VH: QVQLVESGGGLVQPGRSLRLSCAASGFTFSNAWMHWVRQAPGKGLEWVAQIKDKGNAYAAYYTPSVKGRFTISRDDSKNSIYLQMNSLKTEDTAVYYCHYVHYASASTVLPAFGVDAWGQGTTVTVSS VL: DIVMTQSPLSLPVTPGEPASISCQASQELVHMNRNTYLHWYQQKPGQAPRLLIYKVSNRFPGVPDRFSGSGSGTDFTLKISRVEAEDVGVYYCAQGTSVPFTFGQGTKLEIK
0.8 | H183/L072 VH A60E (antibody, name in Kabat numbering, V domains shown) VH: QVQLVESGGGLVQPGRSLRLSCAASGFTFSNAWMHWVRQAPGKGLEWVAQIKDKGNAYAAYYEPSVKGRFTISRDDSKNSIYLQMNSLKTEDTAVYYCHYVHYASASTVLPAFGVDAWGQGTTVTVSS VL: DIVMTQSPLSLPVTPGEPASISCQASQELVHMNRNTYLHWYQQKPGQAPRLLIYKVSNRFPGVPDRFSGSGSGTDFTLKISRVEAEDVGVYYCAQGTSVPFTFGQGTKLEIK
0.7 | H183/L072 VH A60I (antibody, name in Kabat numbering, V domains shown) VH: QVQLVESGGGLVQPGRSLRLSCAASGFTFSNAWMHWVRQAPGKGLEWVAQIKDKGNAYAAYYIPSVKGRFTISRDDSKNSIYLQMNSLKTEDTAVYYCHYVHYASASTVLPAFGVDAWGQGTTVTVSS VL: DIVMTQSPLSLPVTPGEPASISCQASQELVHMNRNTYLHWYQQKPGQAPRLLIYKVSNRFPGVPDRFSGSGSGTDFTLKISRVEAEDVGVYYCAQGTSVPFTFGQGTKLEIK
1.2 | H183/L072 VH A60F (antibody, name in Kabat numbering, V domains shown) VH: QVQLVESGGGLVQPGRSLRLSCAASGFTFSNAWMHWVRQAPGKGLEWVAQIKDKGNAYAAYYFPSVKGRFTISRDDSKNSIYLQMNSLKTEDTAVYYCHYVHYASASTVLPAFGVDAWGQGTTVTVSS VL: DIVMTQSPLSLPVTPGEPASISCQASQELVHMNRNTYLHWYQQKPGQAPRLLIYKVSNRFPGVPDRFSGSGSGTDFTLKISRVEAEDVGVYYCAQGTSVPFTFGQGTKLEIK
1.1 | H183/L072 VH A60L (antibody, name in Kabat numbering, V domains shown) VH: QVQLVESGGGLVQPGRSLRLSCAASGFTFSNAWMHWVRQAPGKGLEWVAQIKDKGNAYAAYYLPSVKGRFTISRDDSKNSIYLQMNSLKTEDTAVYYCHYVHYASASTVLPAFGVDAWGQGTTVTVSS VL: DIVMTQSPLSLPVTPGEPASISCQASQELVHMNRNTYLHWYQQKPGQAPRLLIYKVSNRFPGVPDRFSGSGSGTDFTLKISRVEAEDVGVYYCAQGTSVPFTFGQGTKLEIK
1.1 | H183/L072 VH A60K (antibody, name in Kabat numbering, V domains shown) VH: QVQLVESGGGLVQPGRSLRLSCAASGFTFSNAWMHWVRQAPGKGLEWVAQIKDKGNAYAAYYKPSVKGRFTISRDDSKNSIYLQMNSLKTEDTAVYYCHYVHYASASTVLPAFGVDAWGQGTTVTVSS VL: DIVMTQSPLSLPVTPGEPASISCQASQELVHMNRNTYLHWYQQKPGQAPRLLIYKVSNRFPGVPDRFSGSGSGTDFTLKISRVEAEDVGVYYCAQGTSVPFTFGQGTKLEIK
0.9 | H183/L072 VH A60V (antibody, name in Kabat numbering, V domains shown) VH: QVQLVESGGGLVQPGRSLRLSCAASGFTFSNAWMHWVRQAPGKGLEWVAQIKDKGNAYAAYYVPSVKGRFTISRDDSKNSIYLQMNSLKTEDTAVYYCHYVHYASASTVLPAFGVDAWGQGTTVTVSS VL: DIVMTQSPLSLPVTPGEPASISCQASQELVHMNRNTYLHWYQQKPGQAPRLLIYKVSNRFPGVPDRFSGSGSGTDFTLKISRVEAEDVGVYYCAQGTSVPFTFGQGTKLEIK
1 | H183/L072 VH A60S (antibody, name in Kabat numbering, V domains shown) VH: QVQLVESGGGLVQPGRSLRLSCAASGFTFSNAWMHWVRQAPGKGLEWVAQIKDKGNAYAAYYSPSVKGRFTISRDDSKNSIYLQMNSLKTEDTAVYYCHYVHYASASTVLPAFGVDAWGQGTTVTVSS VL: DIVMTQSPLSLPVTPGEPASISCQASQELVHMNRNTYLHWYQQKPGQAPRLLIYKVSNRFPGVPDRFSGSGSGTDFTLKISRVEAEDVGVYYCAQGTSVPFTFGQGTKLEIK
0.8 | H183/L072 VH A60G (antibody, name in Kabat numbering, V domains shown) VH: QVQLVESGGGLVQPGRSLRLSCAASGFTFSNAWMHWVRQAPGKGLEWVAQIKDKGNAYAAYYGPSVKGRFTISRDDSKNSIYLQMNSLKTEDTAVYYCHYVHYASASTVLPAFGVDAWGQGTTVTVSS VL: DIVMTQSPLSLPVTPGEPASISCQASQELVHMNRNTYLHWYQQKPGQAPRLLIYKVSNRFPGVPDRFSGSGSGTDFTLKISRVEAEDVGVYYCAQGTSVPFTFGQGTKLEIK
1.2 | H183/L072 VH A60Y (antibody, name in Kabat numbering, V domains shown) VH: QVQLVESGGGLVQPGRSLRLSCAASGFTFSNAWMHWVRQAPGKGLEWVAQIKDKGNAYAAYYYPSVKGRFTISRDDSKNSIYLQMNSLKTEDTAVYYCHYVHYASASTVLPAFGVDAWGQGTTVTVSS VL: DIVMTQSPLSLPVTPGEPASISCQASQELVHMNRNTYLHWYQQKPGQAPRLLIYKVSNRFPGVPDRFSGSGSGTDFTLKISRVEAEDVGVYYCAQGTSVPFTFGQGTKLEIK
1.3 | H183/L072 VH A60H (antibody, name in Kabat numbering, V domains shown) VH: QVQLVESGGGLVQPGRSLRLSCAASGFTFSNAWMHWVRQAPGKGLEWVAQIKDKGNAYAAYYHPSVKGRFTISRDDSKNSIYLQMNSLKTEDTAVYYCHYVHYASASTVLPAFGVDAWGQGTTVTVSS VL: DIVMTQSPLSLPVTPGEPASISCQASQELVHMNRNTYLHWYQQKPGQAPRLLIYKVSNRFPGVPDRFSGSGSGTDFTLKISRVEAEDVGVYYCAQGTSVPFTFGQGTKLEIK
1.2 | H183/L072 VH A60R (antibody, name in Kabat numbering, V domains shown) VH: QVQLVESGGGLVQPGRSLRLSCAASGFTFSNAWMHWVRQAPGKGLEWVAQIKDKGNAYAAYYRPSVKGRFTISRDDSKNSIYLQMNSLKTEDTAVYYCHYVHYASASTVLPAFGVDAWGQGTTVTVSS VL: DIVMTQSPLSLPVTPGEPASISCQASQELVHMNRNTYLHWYQQKPGQAPRLLIYKVSNRFPGVPDRFSGSGSGTDFTLKISRVEAEDVGVYYCAQGTSVPFTFGQGTKLEIK
0 | H183/L072 VH A98M (antibody, name in Kabat numbering, V domains shown) VH: QVQLVESGGGLVQPGRSLRLSCAASGFTFSNAWMHWVRQAPGKGLEWVAQIKDKGNAYAAYYAPSVKGRFTISRDDSKNSIYLQMNSLKTEDTAVYYCHYVHYMSASTVLPAFGVDAWGQGTTVTVSS VL: DIVMTQSPLSLPVTPGEPASISCQASQELVHMNRNTYLHWYQQKPGQAPRLLIYKVSNRFPGVPDRFSGSGSGTDFTLKISRVEAEDVGVYYCAQGTSVPFTFGQGTKLEIK
1.1 | H183/L072 VH A60Q (antibody, name in Kabat numbering, V domains shown) VH: QVQLVESGGGLVQPGRSLRLSCAASGFTFSNAWMHWVRQAPGKGLEWVAQIKDKGNAYAAYYQPSVKGRFTISRDDSKNSIYLQMNSLKTEDTAVYYCHYVHYASASTVLPAFGVDAWGQGTTVTVSS VL: DIVMTQSPLSLPVTPGEPASISCQASQELVHMNRNTYLHWYQQKPGQAPRLLIYKVSNRFPGVPDRFSGSGSGTDFTLKISRVEAEDVGVYYCAQGTSVPFTFGQGTKLEIK
1.3 | H183/L072 VH A60N (antibody, name in Kabat numbering, V domains shown) VH: QVQLVESGGGLVQPGRSLRLSCAASGFTFSNAWMHWVRQAPGKGLEWVAQIKDKGNAYAAYYNPSVKGRFTISRDDSKNSIYLQMNSLKTEDTAVYYCHYVHYASASTVLPAFGVDAWGQGTTVTVSS VL: DIVMTQSPLSLPVTPGEPASISCQASQELVHMNRNTYLHWYQQKPGQAPRLLIYKVSNRFPGVPDRFSGSGSGTDFTLKISRVEAEDVGVYYCAQGTSVPFTFGQGTKLEIK
0 | H183/L072 VH A98I (antibody, name in Kabat numbering, V domains shown) VH: QVQLVESGGGLVQPGRSLRLSCAASGFTFSNAWMHWVRQAPGKGLEWVAQIKDKGNAYAAYYAPSVKGRFTISRDDSKNSIYLQMNSLKTEDTAVYYCHYVHYISASTVLPAFGVDAWGQGTTVTVSS VL: DIVMTQSPLSLPVTPGEPASISCQASQELVHMNRNTYLHWYQQKPGQAPRLLIYKVSNRFPGVPDRFSGSGSGTDFTLKISRVEAEDVGVYYCAQGTSVPFTFGQGTKLEIK
1 | H183/L072 VH A60M (antibody, name in Kabat numbering, V domains shown) VH: QVQLVESGGGLVQPGRSLRLSCAASGFTFSNAWMHWVRQAPGKGLEWVAQIKDKGNAYAAYYMPSVKGRFTISRDDSKNSIYLQMNSLKTEDTAVYYCHYVHYASASTVLPAFGVDAWGQGTTVTVSS VL: DIVMTQSPLSLPVTPGEPASISCQASQELVHMNRNTYLHWYQQKPGQAPRLLIYKVSNRFPGVPDRFSGSGSGTDFTLKISRVEAEDVGVYYCAQGTSVPFTFGQGTKLEIK
0 | H183/L072 VH A98L (antibody, name in Kabat numbering, V domains shown) VH: QVQLVESGGGLVQPGRSLRLSCAASGFTFSNAWMHWVRQAPGKGLEWVAQIKDKGNAYAAYYAPSVKGRFTISRDDSKNSIYLQMNSLKTEDTAVYYCHYVHYLSASTVLPAFGVDAWGQGTTVTVSS VL: DIVMTQSPLSLPVTPGEPASISCQASQELVHMNRNTYLHWYQQKPGQAPRLLIYKVSNRFPGVPDRFSGSGSGTDFTLKISRVEAEDVGVYYCAQGTSVPFTFGQGTKLEIK
0.9 | H183/L072 VH A60W (antibody, name in Kabat numbering, V domains shown) VH: QVQLVESGGGLVQPGRSLRLSCAASGFTFSNAWMHWVRQAPGKGLEWVAQIKDKGNAYAAYYWPSVKGRFTISRDDSKNSIYLQMNSLKTEDTAVYYCHYVHYASASTVLPAFGVDAWGQGTTVTVSS VL: DIVMTQSPLSLPVTPGEPASISCQASQELVHMNRNTYLHWYQQKPGQAPRLLIYKVSNRFPGVPDRFSGSGSGTDFTLKISRVEAEDVGVYYCAQGTSVPFTFGQGTKLEIK
